Assay results: patent publication US8951961B2, “Structural and mechanistic basis for novel compound biosynthesis using 4-electron hexose oxidase” (Academia Sinica, priority 2009, dated 2015)
Positions count from the first letter of the chain named. Names and notes keep the numbering of the source. Values after ≈ are worked out from the molar mass of the structure shown.

Tests used:
E. faecalis ATCC 29302 = test: Minimum Inhibition Concentrations (MICs) Test; assay type: cell-based, Enterococcus Faecalis
E. faecalis ATCC 33186 = test: Minimum Inhibition Concentrations (MICs) Test; assay type: cell-based, Enterococcus Faecalis
E. faecalis ATCC 51299 = test: Minimum Inhibition Concentrations (MICs) Test; assay type: cell-based, Enterococcus Faecalis
E. faecalis ATCC 51559 = test: Minimum Inhibition Concentrations (MICs) Test; assay type: cell-based, Enterococcus Faecalis
E. faecalis ATCC 700221 = test: Minimum Inhibition Concentrations (MICs) Test; assay type: cell-based, Enterococcus Faecalis
S. Aureus ATCC 29213 = test: Minimum Inhibition Concentrations (MICs) Test; assay type: cell-based, Staphylococcus Aureus
S. Aureus ATCC 700699 = test: Minimum Inhibition Concentrations (MICs) Test; assay type: cell-based, Staphylococcus Aureus
E. faecalis (ATCC 51559) = test: In vivo animal study, sepsis in mice; set-up: species or system ICR female mice; settings: 10 mg/kg/dose i.v. twice a day, day 1 to day 3
Procedure: 12 ICR female mice with an average body weight of 27 g to 30 g were used in this experiment. Mice had free access to water and food at all time. Sepsis was induced in mice by intravenous (i.v.) injection of […] cfu/mouse of E. faecalis (ATCC 51559) on day 0. The mice were randomized into the following four treatment groups at the start of the experiment:
Each mouse received 10 mg/kg/dose of the medication by intravenous route, twice a day from day 1 to day 3, for a total of 6 doses. Mice were anesthetized and blood was taken from the orbital sinus on day 1, day 2, and day 3. The blood sample was diluted with PBS, plated on Brain Heart infusion agar (BHI agar; Difico, Detroit, Mich., USA) and cultured for colony formation unit.
Data were expressed as mean±SD and the statistical analysis was performed using SigmaStat®. Differences were considered to be significant if the P value was <0.05.

Dbv29 = test: Relative enzymatic activities of Dbv29 mutants; assay type: biochemical, Nonomuraea sp. ATCC39727; settings: for Relative activity: relative to WT

For CN[C@H](CC(C)C)C(=O)N[C@H]1C(=O)N[C@@H](CC(N)=O)C(=O)N[C@H]2C(=O)N[C@H]3C(=O)N[C@H](C(=O)N[C@H](C(=O)O)c4cc(O)cc(O)c4-c4cc3ccc4O)[C@H](O)c3ccc(c(Cl)c3)Oc3cc2cc(c3O[C@@H]2O[C@H](CO)[C@@H](O)[C@H](O)[C@H]2O[C@H]2C[C@](C)(N)[C@H](O)[C@H](C)O2)Oc2ccc(cc2Cl)[C@H]1O [Compound 1, vancomycin], the MIC (E. faecalis ATCC 29302; Enterococcus faecalis, ATCC29302) was 1 µg/mL (≈ 0.69 µM), the MIC (E. faecalis ATCC 33186; Enterococcus faecalis, ATCC33186) was 4 µg/mL (≈ 2.76 µM) and the MIC (E. faecalis ATCC 51299; Enterococcus faecalis, ATCC 51299 / VRE) was > 64 µg/mL. The MIC (E. faecalis ATCC 51559; Enterococcus faecalis, ATCC 51559 / VRE) was > 32 µg/mL, the MIC (E. faecalis ATCC 700221; Enterococcus faecalis, ATCC700221) was > 64 µg/mL and the MIC (S. Aureus ATCC 29213; Staphylococcus aureus, ATCC29213) was 1 µg/mL (≈ 0.69 µM). The MIC (S. Aureus ATCC 700699; Staphylococcus aureus, ATCC700699) was 16 µg/mL (≈ 11 µM) and the “whole blood bacterial counts over the 3-day period” value (E. faecalis (ATCC 51559)) was “suppressed”.

With Teicoplanin [Compound 4] the MIC (E. faecalis ATCC 29302; E. faecalis ATCC 29302, standard strain, no growth in duplicate) was 0.125 µg/mL, the MIC (E. faecalis ATCC 33186; E. faecalis ATCC 33186, antibiotics sensitive strain) was 0.25 µg/mL and the MIC (E. faecalis ATCC 51299; E. faecalis ATCC 51299, low level VRE) was 0.5 µg/mL. For the same molecule, the MIC (E. faecalis ATCC 51559; E. faecalis ATCC 51559, multidrug-resistant strain (VRE)) was >32 µg/mL, the MIC (E. faecalis ATCC 700221; E. faecalis ATCC 700221, resistant to vancomycin) was >32 µg/mL and the MIC (S. Aureus ATCC 29213; S. Aureus ATCC 29213, methacillin-sensitive strain) was 0.5 µg/mL. The MIC (S. Aureus ATCC 700699; S. Aureus ATCC 700699, resistant to methacillin, reduced vancomycin susceptibility) was 8 µg/mL and the “whole blood bacterial counts over the 3-day period” value (E. faecalis (ATCC 51559)) was “suppressed”.

B1: W399A (protein)
chain: MTGGTGADAASAGASSTRPELRGERCLPPAGPVKVTPDDPRYLNLKLRGANSRFNGEPDYIHLVGSTQQVADAVEETVRTGKRVAVRSGGHCFEDFVDNPDVKVIIDMSLLTEIAYDPSMNAFLIEPGNTLSEVYEKLYLGWNVTIPGGVCGGVGVGGHICGGGYGPLSRQFGSVVDYLYAVEVVVVNKQGKARVIVATRERDDPHHDLWWAHTGGGGGNFGVVTKYWMRVPEDVGRNPERLLPKPPATLLTSTVTFDWAGMTEAAFSRLLRNHGEWYERNSGPDSPYTGLWSQLMIGNEVPGMGESGFMMPIQVDATRPDARRLLDAHIEAVIDGVPPAEVPEPIEQRWLASTPGRGGRGPASKTKAGYLRKRLTDRQIQAVYENMTHMDGIDYGAVALIGYGGKVNTVDPAATALPQRDAILKVNYITGWANPGNEAKHLTWVRKLYADVYAETGGVPVPNDVSDGAYINYPDSDLADPGLNTSGVPWHDLYYKGNHPRLRKVKAAYDPRNHFHHALSIRP
In the case of B1, the “catalytic activity” value (Dbv29) is reported as “no product was produced”.

B2: I401A (protein)
chain: B1 chain with A399W, I401A
With B2 the Relative activity (Dbv29) was 0.09.

B3: N44A (protein)
chain: B1 chain with N44A, A399W
In the case of B3, the Relative activity (Dbv29) is reported as 0.87.

B4: R41A (protein)
chain: B1 chain with R41A, A399W
B4 showed a Relative activity (Dbv29) of 0.72.

B5: Y165F (protein)
chain: B1 chain with Y165F, A399W
B5 showed a Relative activity (Dbv29) of 0.70.

B6: C161A (protein)
chain: B1 chain with C161A, A399W
For B6, the Relative activity (Dbv29) was 0.84.

B7: R360L/T366E (protein)
chain: B1 chain with R360L, T366E, A399W
In the case of B7, the Relative activity (Dbv29) is reported as 0.01.

B8: H91A/C151A (protein)
chain: B1 chain with H91A, C151A, A399W
In the case of B8, the “activity relative to WT” value (Dbv29) is reported as 5% and the Relative activity (Dbv29) is reported as 0.05.

B9: T366L (protein)
chain: B1 chain with T366L, A399W
B9 showed a Relative activity (Dbv29) of 0.13.

B10: Y428F (protein)
chain: B1 chain with A399W, Y428F
B10 showed a Relative activity (Dbv29) of 1.00.

B11: W399F (protein)
chain: B1 chain with A399F
With B11 the “activity relative to WT” value (Dbv29) was 15% and the Relative activity (Dbv29) was 0.16.

B12: C92A (protein)
chain: B1 chain with C92A, A399W
Molecule B12 has a Relative activity (Dbv29) of 0.95.

B13: T366E (protein)
chain: B1 chain with T366E, A399W
In the case of B13, the “activity relative to WT” value (Dbv29) is reported as 5% and the Relative activity (Dbv29) is reported as 0.05.

B14: T366A (protein)
chain: B1 chain with T366A, A399W
With B14 the “activity relative to WT” value (Dbv29) was 11% and the Relative activity (Dbv29) was 0.11.

B15: Y370F/Y403F (protein)
chain: B1 chain with Y370F, A399W, Y403F
B15 was tested, and the Relative activity (Dbv29) was 0.05.

B16: R41A/N44A (protein)
chain: B1 chain with R41A, N44A, A399W
With B16 the Relative activity (Dbv29) was 0.59.

B17: C151A (protein)
chain: B1 chain with C151A, A399W
B17 was tested, and the “activity relative to WT” value (Dbv29) was 23% and the Relative activity (Dbv29) was 0.23.

B18: S364R (protein)
chain: B1 chain with S364R, A399W
For B18, the Relative activity (Dbv29) was 0.08.

B19: Y453F (protein)
chain: B1 chain with A399W, Y453F
For B19, the Relative activity (Dbv29) was 0.82.

B20: R360L (protein)
chain: B1 chain with R360L, A399W
With B20 the Relative activity (Dbv29) was 0.23.

B21: Y403F (protein)
chain: B1 chain with A399W, Y403F
In the case of B21, the Relative activity (Dbv29) is reported as 0.65.

B22: I401W (protein)
chain: B1 chain with A399W, I401W
Work on B22 yielded a Relative activity (Dbv29) of 0.02.

B23: Y165F/Y473F (protein)
chain: B1 chain with Y165F, A399W, Y473F
With B23 the “catalytic activity” value (Dbv29) was “total loss of catalytic activity”.

B24: Y165W (protein)
chain: B1 chain with Y165W, A399W
Work on B24 yielded a Relative activity (Dbv29) of 0.03.

B25: H91A (protein)
chain: B1 chain with H91A, A399W
B25 was tested, and the “activity relative to WT” value (Dbv29) was 11% and the Relative activity (Dbv29) was 0.11.

B26: Y473F (protein)
chain: B1 chain with A399W, Y473F
B26 gave a Relative activity (Dbv29) of 0.23.

B27: C26A (protein)
chain: B1 chain with C26A, A399W
B27 showed a Relative activity (Dbv29) of 1.11.

B28: Y470F (protein)
chain: B1 chain with A399W, Y470F
In the case of B28, the Relative activity (Dbv29) is reported as 0.21.

B29: Y428F/Y453F (protein)
chain: B1 chain with A399W, Y428F, Y453F
B29 showed a Relative activity (Dbv29) of 1.08.

B30: S364K (protein)
chain: B1 chain with S364K, A399W
With B30 the Relative activity (Dbv29) was 0.04.

B31: R360E (protein)
chain: B1 chain with R360E, A399W
Molecule B31 has a Relative activity (Dbv29) of 0.76.

B32: R360L/T366A (protein)
chain: B1 chain with R360L, T366A, A399W
Molecule B32 has a Relative activity (Dbv29) of 0.03.

B33: R360E/T366E (protein)
chain: B1 chain with R360E, T366E, A399W
With B33 the Relative activity (Dbv29) was 0.03.

B34: Y370F (protein)
chain: B1 chain with Y370F, A399W
For B34, the Relative activity (Dbv29) was 0.10.
